Measured values reported in US20140087995A1 (published 2014).
Numbered stars: 1 amine (or outer) side, 2 acyl side, 3 side chain; on linkers, the order of the positions; unused ones are H or OH. Bridge positions count the residues as written; N and C are the ends. Side chains are listed from the residue outwards. Ends that are not written are not given here. * marks the point of attachment. C20 diacid = O=C(O)CCCCCCCCCCCCCCCCCCC(=O)*; γGlu = O=C(O)[C@H](CCC(=O)[*:2])N[*:1]

T1: human amylin receptor (amylin 3(a) receptor: human calcitonin receptor plus RAMP-3) (human, UniProt P30988 25-474; O60896 24-148, limits assumed)
T1 construct: whole, on cells; Whole cells in the luciferase assay (Assay II a); also called hAmylin-R; hAmylinR
T1 sequence (looked up) 1: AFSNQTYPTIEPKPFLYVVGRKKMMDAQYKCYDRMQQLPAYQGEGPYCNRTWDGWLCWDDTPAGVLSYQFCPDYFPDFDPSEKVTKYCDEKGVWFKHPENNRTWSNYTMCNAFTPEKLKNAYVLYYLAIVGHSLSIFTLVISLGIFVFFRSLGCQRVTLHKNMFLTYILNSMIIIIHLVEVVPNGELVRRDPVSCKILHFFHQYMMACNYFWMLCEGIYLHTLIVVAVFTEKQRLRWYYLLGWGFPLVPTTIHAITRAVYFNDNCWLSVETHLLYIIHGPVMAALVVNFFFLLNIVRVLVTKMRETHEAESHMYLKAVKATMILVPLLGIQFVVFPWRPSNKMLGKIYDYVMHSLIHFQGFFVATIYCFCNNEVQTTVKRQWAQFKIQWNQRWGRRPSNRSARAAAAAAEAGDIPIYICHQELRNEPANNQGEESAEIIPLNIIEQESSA
T1 sequence (looked up) 2: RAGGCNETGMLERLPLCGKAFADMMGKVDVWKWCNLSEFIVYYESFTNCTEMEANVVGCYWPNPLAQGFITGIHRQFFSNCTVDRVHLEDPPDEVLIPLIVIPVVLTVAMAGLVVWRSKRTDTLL

T2: human calcitonin receptor (human, UniProt P30988 25-474)
T2 sequence (looked up): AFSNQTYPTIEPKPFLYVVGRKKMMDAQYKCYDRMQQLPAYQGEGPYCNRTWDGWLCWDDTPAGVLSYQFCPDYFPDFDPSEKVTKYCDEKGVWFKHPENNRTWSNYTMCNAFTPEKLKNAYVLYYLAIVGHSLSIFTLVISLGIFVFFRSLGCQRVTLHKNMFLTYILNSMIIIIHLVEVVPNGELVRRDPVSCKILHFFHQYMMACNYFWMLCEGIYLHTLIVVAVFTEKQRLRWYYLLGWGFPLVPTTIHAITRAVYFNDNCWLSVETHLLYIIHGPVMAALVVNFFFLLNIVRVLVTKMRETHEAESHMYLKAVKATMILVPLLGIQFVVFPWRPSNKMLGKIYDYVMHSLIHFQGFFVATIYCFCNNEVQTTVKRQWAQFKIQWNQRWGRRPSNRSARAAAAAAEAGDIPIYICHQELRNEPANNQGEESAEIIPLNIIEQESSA

T3: human calcitonin receptor (human, UniProt P30988 25-474)
T3 sequence (looked up): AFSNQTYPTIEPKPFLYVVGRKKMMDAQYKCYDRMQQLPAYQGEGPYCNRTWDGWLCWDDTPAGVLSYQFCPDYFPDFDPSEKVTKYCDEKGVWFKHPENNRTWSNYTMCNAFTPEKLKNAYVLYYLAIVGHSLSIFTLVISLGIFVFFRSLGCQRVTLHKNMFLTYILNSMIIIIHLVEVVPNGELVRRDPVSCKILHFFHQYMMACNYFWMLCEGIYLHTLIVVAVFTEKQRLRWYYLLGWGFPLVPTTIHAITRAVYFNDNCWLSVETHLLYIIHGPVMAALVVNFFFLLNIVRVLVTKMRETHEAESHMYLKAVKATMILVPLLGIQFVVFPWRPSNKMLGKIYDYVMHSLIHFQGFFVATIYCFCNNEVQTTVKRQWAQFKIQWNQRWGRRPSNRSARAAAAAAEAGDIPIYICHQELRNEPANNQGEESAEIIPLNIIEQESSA

T4: human amylin receptor (amylin 3(a) receptor: human calcitonin receptor co-expressed with RAMP-3) (human, UniProt P30988 25-474; O60896 24-148)
T4 sequence (looked up) 1: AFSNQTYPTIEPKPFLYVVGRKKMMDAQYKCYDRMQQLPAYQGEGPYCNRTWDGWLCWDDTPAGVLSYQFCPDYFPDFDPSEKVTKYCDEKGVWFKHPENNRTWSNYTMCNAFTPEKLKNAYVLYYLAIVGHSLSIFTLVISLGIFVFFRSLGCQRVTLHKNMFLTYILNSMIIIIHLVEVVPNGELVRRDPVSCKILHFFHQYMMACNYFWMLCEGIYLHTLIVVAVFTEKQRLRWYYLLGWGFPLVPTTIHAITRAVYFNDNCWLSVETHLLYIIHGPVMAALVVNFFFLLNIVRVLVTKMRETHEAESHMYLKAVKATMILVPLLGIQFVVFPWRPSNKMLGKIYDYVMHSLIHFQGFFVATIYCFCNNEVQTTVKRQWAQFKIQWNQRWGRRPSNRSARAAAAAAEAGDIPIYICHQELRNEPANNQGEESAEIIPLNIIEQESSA
T4 sequence (looked up) 2: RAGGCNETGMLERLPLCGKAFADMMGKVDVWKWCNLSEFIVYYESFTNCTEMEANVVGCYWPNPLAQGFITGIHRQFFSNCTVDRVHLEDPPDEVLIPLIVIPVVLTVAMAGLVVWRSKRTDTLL


Columns and labels:
[1] = target: T1, human amylin receptor (amylin 3(a) …); assay: SPA competition binding, displacement of 125I-rat amylin from membranes of BHK cells with human calcitonin receptor + RAMP-3 (Assay V)
Method in brief: (§1)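 SPA beads with BHK Amylin 3(a)/CRE-luc cell membranes (35 ng/μL final) in 50 mM Hepes pH 7.4, 1 mM CaCl2, 5 mM MgCl₂, 0.1% OA, 0.02% Tween20.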

[2] = target: T1, human amylin receptor (amylin 3(a) …); assay: cell-based or functional assay
[3] = target: T2, human calcitonin receptor; assay: cell-based or functional assay
[4] = target: T3, human calcitonin receptor; assay: cell-based or functional assay; remark: listed apart in the source
[5] = target: T4, human amylin receptor (amylin 3(a) …); assay: cell-based or functional assay
[6] = target: T4, human amylin receptor (amylin 3(a) …); assay: SPA competition binding, membranes of Amylin 3(a)/CRE-luc BHK cells, displacement of 125I-rat amylin (Assay V)
Method in brief: as §1

Binder	IC50 [1] [pM]	Ratio hCT/hAmylin funct. [2] [ratio]	hAmylin-R funct. EC50 [2] [pM]	hCTR funct. EC50 [3] [pM]	Ratio hCT/hAmylin funct. (hCTR EC50 against hAmylin-R EC50) [4]	hCTR funct. EC50 (pM), CRE-luciferase reporter in BHK calcitonin (a) receptor cells [4] [pM]	hAmylin-R funct. EC50 (pM), CRE-luciferase reporter in BHK amylin 3(a) receptor cells [5] [pM]	IC50 [6] [pM]
{C20 diacid-γGlu}-KCNTATCATQRLAEFLRHSSPNFGAIPSSTNVGHNTY-NH2 (disulfide 2-7; SMILES CC[C@H](C)[C@H](NC(=O)[C@H](C)NC(=O)CNC(=O)[C@H](Cc1ccccc1)NC(=O)[C@H](CC(N)=O)NC(=O)[C@@H]1CCCN1C(=O)[C@H](CO)NC(=O)[C@H](CO)NC(=O)[C@H](Cc1c[nH]cn1)NC(=O)[C@H](CCCNC(=N)N)NC(=O)[C@H](CC(C)C)NC(=O)[C@H](Cc1ccccc1)NC(=O)[C@H](CCC(=O)O)NC(=O)[C@H](C)NC(=O)[C@H](CC(C)C)NC(=O)[C@H](CCCNC(=N)N)NC(=O)[C@H](CCC(N)=O)NC(=O)[C@@H](NC(=O)[C@H](C)NC(=O)[C@@H]1CSSC[C@H](NC(=O)[C@H](CCCCN)NC(=O)CC[C@H](NC(=O)CCCCCCCCCCCCCCCCCCC(=O)O)C(=O)O)C(=O)N[C@@H](CC(N)=O)C(=O)N[C@@H]([C@@H](C)O)C(=O)N[C@@H](C)C(=O)N[C@@H]([C@@H](C)O)C(=O)N1)[C@@H](C)O)C(=O)N1CCC[C@H]1C(=O)N[C@@H](CO)C(=O)N[C@@H](CO)C(=O)N[C@H](C(=O)N[C@@H](CC(N)=O)C(=O)N[C@H](C(=O)NCC(=O)N[C@@H](Cc1c[nH]cn1)C(=O)N[C@@H](CC(N)=O)C(=O)N[C@H](C(=O)N[C@@H](Cc1ccc(O)cc1)C(N)=O)[C@@H](C)O)C(C)C)[C@@H](C)O, Synthetic acylated analogue of human amylin; also called compound 17)	878	8.8	268	2350	–	–	–	–
{C20 diacid-γGlu-γGlu}-KCNTATCATQRLAEFLRHSSPNFGAIPSSTNVGSNTY-NH2 (disulfide 2-7; SMILES CC[C@H](C)[C@H](NC(=O)[C@H](C)NC(=O)CNC(=O)[C@H](Cc1ccccc1)NC(=O)[C@H](CC(N)=O)NC(=O)[C@@H]1CCCN1C(=O)[C@H](CO)NC(=O)[C@H](CO)NC(=O)[C@H](Cc1c[nH]cn1)NC(=O)[C@H](CCCNC(=N)N)NC(=O)[C@H](CC(C)C)NC(=O)[C@H](Cc1ccccc1)NC(=O)[C@H](CCC(=O)O)NC(=O)[C@H](C)NC(=O)[C@H](CC(C)C)NC(=O)[C@H](CCCNC(=N)N)NC(=O)[C@H](CCC(N)=O)NC(=O)[C@@H](NC(=O)[C@H](C)NC(=O)[C@@H]1CSSC[C@H](NC(=O)[C@H](CCCCN)NC(=O)CC[C@H](NC(=O)CC[C@H](NC(=O)CCCCCCCCCCCCCCCCCCC(=O)O)C(=O)O)C(=O)O)C(=O)N[C@@H](CC(N)=O)C(=O)N[C@@H]([C@@H](C)O)C(=O)N[C@@H](C)C(=O)N[C@@H]([C@@H](C)O)C(=O)N1)[C@@H](C)O)C(=O)N1CCC[C@H]1C(=O)N[C@@H](CO)C(=O)N[C@@H](CO)C(=O)N[C@H](C(=O)N[C@@H](CC(N)=O)C(=O)N[C@H](C(=O)NCC(=O)N[C@@H](CO)C(=O)N[C@@H](CC(N)=O)C(=O)N[C@H](C(=O)N[C@@H](Cc1ccc(O)cc1)C(N)=O)[C@@H](C)O)C(C)C)[C@@H](C)O, Synthetic acylated analogue of human amylin; also called compound 15)	597	8.9	386	3430	–	–	–	–
K([γGlu-γGlu-C20 diacid])CNTATCATQRLAEFLRHSSPNFGAIPSSTNVGPETP-NH2 (disulfide 2-7 (inferred), Synthetic acylated analogue of human amylin)	–	–	–	–	0.8	102	132	533

The next lines start with the values.

IC50 [1] [pM]	Ratio hCT/hAmylin funct. [2] [ratio]	hAmylin-R funct. EC50 [2] [pM]	hCTR funct. EC50 [3] [pM]	Ratio hCT/hAmylin funct. (hCTR EC50 against hAmylin-R EC50) [4]	hCTR funct. EC50 (pM), CRE-luciferase reporter in BHK calcitonin (a) receptor cells [4] [pM]	hAmylin-R funct. EC50 (pM), CRE-luciferase reporter in BHK amylin 3(a) receptor cells [5] [pM]	IC50 [6] [pM]	Binder
577	8.7	99	857	–	–	–	–	{C20 diacid-γGlu}-KCNTATCATQRLANFLRHSSPNFGAIPSSTNVGPETY-NH2 (disulfide 2-7; SMILES CC[C@H](C)[C@H](NC(=O)[C@H](C)NC(=O)CNC(=O)[C@H](Cc1ccccc1)NC(=O)[C@H](CC(N)=O)NC(=O)[C@@H]1CCCN1C(=O)[C@H](CO)NC(=O)[C@H](CO)NC(=O)[C@H](Cc1c[nH]cn1)NC(=O)[C@H](CCCNC(=N)N)NC(=O)[C@H](CC(C)C)NC(=O)[C@H](Cc1ccccc1)NC(=O)[C@H](CC(N)=O)NC(=O)[C@H](C)NC(=O)[C@H](CC(C)C)NC(=O)[C@H](CCCNC(=N)N)NC(=O)[C@H](CCC(N)=O)NC(=O)[C@@H](NC(=O)[C@H](C)NC(=O)[C@@H]1CSSC[C@H](NC(=O)[C@H](CCCCN)NC(=O)CC[C@H](NC(=O)CCCCCCCCCCCCCCCCCCC(=O)O)C(=O)O)C(=O)N[C@@H](CC(N)=O)C(=O)N[C@@H]([C@@H](C)O)C(=O)N[C@@H](C)C(=O)N[C@@H]([C@@H](C)O)C(=O)N1)[C@@H](C)O)C(=O)N1CCC[C@H]1C(=O)N[C@@H](CO)C(=O)N[C@@H](CO)C(=O)N[C@H](C(=O)N[C@@H](CC(N)=O)C(=O)N[C@H](C(=O)NCC(=O)N1CCC[C@H]1C(=O)N[C@@H](CCC(=O)O)C(=O)N[C@H](C(=O)N[C@@H](Cc1ccc(O)cc1)C(N)=O)[C@@H](C)O)C(C)C)[C@@H](C)O, Synthetic acylated analogue of human amylin; also called compound 29)
100	6.6	50	327	–	–	–	–	{C20 diacid-γGlu}-KCNTATCATQRLAEFLRHSSPNFGAIPSSTNVGPNTY-NH2 (disulfide 2-7; SMILES CC[C@H](C)[C@H](NC(=O)[C@H](C)NC(=O)CNC(=O)[C@H](Cc1ccccc1)NC(=O)[C@H](CC(N)=O)NC(=O)[C@@H]1CCCN1C(=O)[C@H](CO)NC(=O)[C@H](CO)NC(=O)[C@H](Cc1c[nH]cn1)NC(=O)[C@H](CCCNC(=N)N)NC(=O)[C@H](CC(C)C)NC(=O)[C@H](Cc1ccccc1)NC(=O)[C@H](CCC(=O)O)NC(=O)[C@H](C)NC(=O)[C@H](CC(C)C)NC(=O)[C@H](CCCNC(=N)N)NC(=O)[C@H](CCC(N)=O)NC(=O)[C@@H](NC(=O)[C@H](C)NC(=O)[C@@H]1CSSC[C@H](NC(=O)[C@H](CCCCN)NC(=O)CC[C@H](NC(=O)CCCCCCCCCCCCCCCCCCC(=O)O)C(=O)O)C(=O)N[C@@H](CC(N)=O)C(=O)N[C@@H]([C@@H](C)O)C(=O)N[C@@H](C)C(=O)N[C@@H]([C@@H](C)O)C(=O)N1)[C@@H](C)O)C(=O)N1CCC[C@H]1C(=O)N[C@@H](CO)C(=O)N[C@@H](CO)C(=O)N[C@H](C(=O)N[C@@H](CC(N)=O)C(=O)N[C@H](C(=O)NCC(=O)N1CCC[C@H]1C(=O)N[C@@H](CC(N)=O)C(=O)N[C@H](C(=O)N[C@@H](Cc1ccc(O)cc1)C(N)=O)[C@@H](C)O)C(C)C)[C@@H](C)O, Synthetic acylated analogue of human amylin; also called compound 32)
–	–	–	–	9.9	2140	216	152	K([γGlu-γGlu-C20 diacid])CNTATCATQRLAEFLRHSSPNFGAIPSSTNVGPNTF-NH2 (disulfide 2-7 (inferred), Synthetic acylated analogue of human amylin)
–	–	–	–	13.1	5580	425	992	K([γGlu-C20 diacid])CNTATCATQRLAEFLRHSSPNFGAIPSSTNVGSHTY-NH2 (disulfide 2-7 (inferred), Synthetic acylated analogue of human amylin)
–	–	–	–	17.3	89600	5170	1190	K([γGlu-γGlu-C20 diacid])CNTATCATQRLAEFLRHSSNNPGAILSSTNVGPETY-NH2 (disulfide 2-7 (inferred), Synthetic acylated analogue of human amylin)
